Where a chain is given by its changes, count along the chain named. Names and notes keep the numbering of the source. Values joined by “and” are separate entries in the source; they are usually repeats but may differ in a detail not shown here. Equal entries are not always repeated.
B1: WspR^wt (His-tagged WspR, purified) (enzyme, Pseudomonas aeruginosa)
chain: MHNPHESKTDLGAPLDGAVMVLLVDDQAMIGEAVRRSLASEAGIDFHFCSDPQQAVAVANQIKPTVILQDLVMPGVDGLTLLAAYRGNPATRDIPIIVLSTKEEPTVKSAAFAAGANDYLVKLPDAIELVARIRYHSRSYIALQQRDEAYRALRESQQQLLETNLVLQRLMNSDGLTGLSNRRHFDEYLEMEWRRSLREQSQLSLLMIDVDYFKSYNDTFGHVAGDEALRQVAGAIREGCSRSSDLAARYGGEEFAMVLPGTSPGGARLLAEKVRRTVESLQISHDQPRPGSHLTVSIGVSTLVPGGGGQTFRVLIEMADQALYQAKNNGRNQVGLMEQPVPPAPAG
B2: WspR^V72D (His-tagged WspR V72D variant, purified) (enzyme, Pseudomonas aeruginosa)
chain: B1 chain with V72D

Target: the molecule itself
Assay: SEC

Protein | stoichiometry N
B1 | 4 and 2
B2 | 4 and 2
